Data taken from paper PMC8823281 (Biochemistry, 2021).
Substitutions are numbered along the chain they refer to. Values belong to the binder of their own block, whether it stands above or below them.

Key:
Experiment in all cases: immunostaining of cells or tissue
[1] = target: plasma membrane-targeted version of rat VGLUT1 (Rattus norvegicus, UniProt Q62634)
[2] = target: plasma membrane-targeted version of rat VGLUT3 (Rattus norvegicus, UniProt Q7TSF2)
[3] = target: plasma membrane-targeted version of rat VGLUT2 (Rattus norvegicus, UniProt Q9JI12, point mutant)
plasma membrane-targeted version of rat VGLUT2, sequence (Q9JI12 whole entry, change not shown): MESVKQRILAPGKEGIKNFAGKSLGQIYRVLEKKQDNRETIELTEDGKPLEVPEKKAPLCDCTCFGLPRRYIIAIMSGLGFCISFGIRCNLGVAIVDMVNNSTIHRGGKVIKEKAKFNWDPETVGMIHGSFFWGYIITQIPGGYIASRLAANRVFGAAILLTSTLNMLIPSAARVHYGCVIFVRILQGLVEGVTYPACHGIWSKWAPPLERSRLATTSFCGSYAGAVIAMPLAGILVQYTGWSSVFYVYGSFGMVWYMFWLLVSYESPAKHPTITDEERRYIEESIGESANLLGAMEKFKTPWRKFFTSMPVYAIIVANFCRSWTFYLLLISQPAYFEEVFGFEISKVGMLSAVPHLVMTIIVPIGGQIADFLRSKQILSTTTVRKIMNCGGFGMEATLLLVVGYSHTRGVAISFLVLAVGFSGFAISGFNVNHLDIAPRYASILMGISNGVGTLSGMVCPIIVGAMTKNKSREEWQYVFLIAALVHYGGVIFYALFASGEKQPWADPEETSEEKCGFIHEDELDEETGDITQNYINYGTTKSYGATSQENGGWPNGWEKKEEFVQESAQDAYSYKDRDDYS

plasma membrane-targeted version of rat VGLUT3, sequence (Q7TSF2 whole entry): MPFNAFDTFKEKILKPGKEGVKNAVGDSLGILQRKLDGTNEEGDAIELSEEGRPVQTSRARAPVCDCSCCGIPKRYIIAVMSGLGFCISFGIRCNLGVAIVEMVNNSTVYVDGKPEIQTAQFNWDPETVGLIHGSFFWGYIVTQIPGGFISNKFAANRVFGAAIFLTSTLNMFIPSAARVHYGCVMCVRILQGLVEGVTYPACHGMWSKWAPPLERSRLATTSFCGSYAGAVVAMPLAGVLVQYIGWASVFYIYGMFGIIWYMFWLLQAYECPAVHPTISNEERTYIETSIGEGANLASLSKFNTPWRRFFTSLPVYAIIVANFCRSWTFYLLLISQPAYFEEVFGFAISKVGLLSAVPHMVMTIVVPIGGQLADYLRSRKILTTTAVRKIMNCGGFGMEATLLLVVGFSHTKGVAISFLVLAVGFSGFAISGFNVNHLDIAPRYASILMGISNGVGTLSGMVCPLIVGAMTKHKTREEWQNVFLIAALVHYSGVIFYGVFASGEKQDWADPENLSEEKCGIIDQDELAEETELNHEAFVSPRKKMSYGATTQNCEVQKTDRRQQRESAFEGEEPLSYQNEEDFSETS
plasma membrane-targeted version of rat VGLUT1, sequence (Q62634 whole entry): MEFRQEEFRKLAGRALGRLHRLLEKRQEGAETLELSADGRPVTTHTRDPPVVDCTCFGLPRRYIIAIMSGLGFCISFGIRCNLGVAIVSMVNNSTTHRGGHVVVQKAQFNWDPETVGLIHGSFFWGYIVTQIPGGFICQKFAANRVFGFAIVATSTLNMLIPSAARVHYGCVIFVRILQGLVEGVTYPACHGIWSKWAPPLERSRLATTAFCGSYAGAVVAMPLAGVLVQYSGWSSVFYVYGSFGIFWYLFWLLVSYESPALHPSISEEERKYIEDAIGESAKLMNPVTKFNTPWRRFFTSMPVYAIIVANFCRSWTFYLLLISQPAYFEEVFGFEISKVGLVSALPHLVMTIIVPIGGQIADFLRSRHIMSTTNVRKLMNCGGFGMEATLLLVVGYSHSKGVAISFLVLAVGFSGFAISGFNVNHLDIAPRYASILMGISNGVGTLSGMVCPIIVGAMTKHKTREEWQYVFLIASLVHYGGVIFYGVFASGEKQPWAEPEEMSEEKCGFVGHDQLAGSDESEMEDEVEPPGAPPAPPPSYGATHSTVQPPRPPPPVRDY

binding result [1]: binds
binding result [2]: no binding
binding result [3]: binds
B1: monoclonal antibody 9C6 (antibody, V domains shown)
VH: EVMLVESGGGLVKPGGSLKISCAASGFTFSWYAMSWVRQTPEKRLEWVATISSAGSYTYYPDSVKGRFTISRDNAKNTLYLQMSSLRSEDTAMYYCSRVPILGRVDYWGQGTTLTVSS
VL: QIVLTQSPAIMSASPGEKVTMTCSASSSVTYMHWYQQKSGTSPKTWIYDSSRLASGVPARFSGSGSGTSYSLTISSMEAEDAATYYCQHWSSNPPIFTFGSGTKLEIK

binding result [1]: binds
binding result [2]: no binding
B2: monoclonal antibody 8E11 (antibody, V domains shown)
VH: B1 VH
VL: B1 VL with I10F, H33N, A59P, H89Q
